In patent publication US11504441B2, “Radiolabeled compounds targeting the prostate-specific membrane antigen” (PROVINCIAL HEALTH SERVICES AUTHORITY, priority 2019, dated 2022):

Assays:
in vivo = conditions: male, NODSCID 1L2RγKO, mouse, iv, total radioactivity; for excreta dose per gram or mL at 1 h: Urine uptake
[1] = tested on: PSMA-expressing LNCaP cancer xenografts; conditions: mouse, in vivo

| SMILES | tissue uptake at 1 h (in vivo; Adrenal glands uptake) [%ID/g] | tissue uptake at 1 h (in vivo; Blood uptake) [%ID/g] | tissue uptake at 1 h (in vivo; Bone uptake) [%ID/g] | tissue uptake at 1 h (in vivo; Brain uptake) [%ID/g] | tissue uptake at 1 h (in vivo; Fat uptake) [%ID/g] | tissue uptake at 1 h (in vivo; Heart uptake) [%ID/g] | tissue uptake at 1 h (in vivo; Intestine uptake) [%ID/g] | tissue uptake at 1 h (in vivo; Kidneys uptake) [%ID/g] | tissue uptake at 1 h (in vivo; Lacrimal uptake) [%ID/g] | tissue uptake at 1 h (in vivo; Liver uptake) [%ID/g] | tissue uptake at 1 h (in vivo; Lungs uptake) [%ID/g] | tissue uptake at 1 h (in vivo; Muscle uptake) [%ID/g] | tissue uptake at 1 h (in vivo; Pancreas uptake) [%ID/g] | tissue uptake at 1 h (in vivo; Salivary uptake) [%ID/g] | tissue uptake at 1 h (in vivo; Seminal uptake) [%ID/g] | tissue uptake at 1 h (in vivo; Spleen uptake) [%ID/g] | tissue uptake at 1 h (in vivo; Stomach uptake) [%ID/g] | tissue uptake at 1 h (in vivo; Tail uptake) [%ID/g] | tissue uptake at 1 h (in vivo; Testes uptake) [%ID/g] | tissue uptake at 1 h (in vivo; Thyroid uptake) [%ID/g] | further results |
| --- | --- | --- | --- | --- | --- | --- | --- | --- | --- | --- | --- | --- | --- | --- | --- | --- | --- | --- | --- | --- | --- |
| O=C(O)CCCCC(NC(=O)N[C@@H](CCCCNC(=O)[C@H](Cc1c2ccccc2cc2ccccc12)NC(=O)[C@H]1CC[C@H](CNC(=O)CN2CCN(CC(=O)O)CCN(CC(=O)O)CCN(CC(=O)O)CC2)CC1)C(=O)O)C(=O)O (single isomer, unassigned) [68Ga-HTK03189A, metal not drawn] | 0.35 ± 0.06 | 0.89 ± 0.22 | 0.12 ± 0.03 | 0.02 | 0.18 ± 0.11 | 0.24 ± 0.06 | 0.31 ± 0.18 | 2.65 ± 0.69 | 0.18 ± 0.18 | 0.34 ± 0.15 | 0.68 ± 0.12 | 0.14 ± 0.04 | 0.15 ± 0.04 | 0.2 ± 0.04 | 3.61 ± 4.59 | 0.21 ± 0.1 | 0.11 ± 0.06 | 0.77 ± 0.3 | 0.23 ± 0.11 | 0.25 ± 0.05 | excreta dose per gram or mL at 1 h (in vivo): 343 ± 54.4 %ID/g; Tumor uptake ([1]; male, NODSCID 1L2RγKO, iv, 1 h): 2.10 ± 0.28 % ID/g; Blood: Salivary ratio [1]: 4.39 ± 0.44; Tumor: Blood ratio [1]: 2.41 ± 0.29; Tumor: Kidney ratio [1]: 0.83 ± 0.21; Tumor: Muscle ratio [1]: 16.5 ± 4.08; Tumor: Salivary ratio [1]: 10.5 ± 1.07 |
| O=C(O)CN1CCN(CC(=O)O)CCN(CC(=O)NC[C@H]2CC[C@H](C(=O)N[C@@H](Cc3c4ccccc4cc4ccccc34)C(=O)NCCCC[C@H](NC(=O)N[C@@H](C[C@H](F)C(=O)O)C(=O)O)C(=O)O)CC2)CCN(CC(=O)O)CC1 [68Ga-HTK04040, metal not drawn] | 2.68 ± 0.7 | 0.94 ± 0.12 | 0.18 ± 0.03 | 0.25 ± 0.43 | 0.6 ± 0.3 | 0.88 ± 0.08 | 0.53 ± 0.04 | 76 ± 22.6 | 0.06 ± 0.02 | 0.94 ± 0.11 | 2.01 ± 0.21 | 0.64 ± 0.5 | 0.61 ± 0.08 | 1.29 ± 0.24 | 0.51 ± 0.12 | 2.58 ± 0.8 | 0.23 ± 0.08 | 0.85 ± 0.54 | 0.74 ± 0.04 | 1.14 ± 0.14 | tissue uptake at 1 h (in vivo; Tumor uptake): 18.8 ± 5.06 %ID/g; excreta dose per gram or mL at 1 h (in vivo): 325 ± 66.8 %ID/g; Blood: Salivary ratio [1]: 0.73 ± 0.06; Tumor: Blood ratio [1]: 20.4 ± 6.02; Tumor: Kidney ratio [1]: 0.26 ± 0.08; Tumor: Muscle ratio [1]: 43.2 ± 24.9; Tumor: Salivary ratio [1]: 14.9 ± 4.40 |
| O=C(O)CCC[C@H](NC(=O)N[C@@H](CCCCNC(=O)[C@H](Cc1cccc(I)c1)NC(=O)[C@H]1CC[C@H](CNC(=O)CN2CCN(CC(=O)O)CCN(CC(=O)O)CCN(CC(=O)O)CC2)CC1)C(=O)O)C(=O)O [68Ga-HTK04053, metal not drawn] | 0.12 ± 0.03 | 0.29 ± 0.05 | 0.04 ± 0.01 | 0.01 | 0.04 ± 0.01 | 0.09 ± 0.02 | 0.15 ± 0.03 | 3.48 ± 2.39 | 0.05 ± 0.01 | 0.13 ± 0.07 | 0.28 ± 0.04 | 0.05 ± 0.01 | 0.06 ± 0.02 | 0.06 ± 0.02 | 7.61 ± 12.5 | 0.12 ± 0.03 | 0.06 ± 0.04 | 0.2 ± 0.07 | 0.11 ± 0.02 | 0.09 ± 0.01 | tissue uptake at 1 h (in vivo; Tumor uptake): 4.96 ± 2.75 %ID/g; excreta dose per gram or mL at 1 h (in vivo): 523 ± 330 %ID/g; Blood: Salivary ratio [1]: 5.19 ± 1.73; Tumor: Blood ratio [1]: 16.8 ± 7.00; Tumor: Kidney ratio [1]: 1.84 ± 1.26; Tumor: Muscle ratio [1]: 93.7 ± 27.0; Tumor: Salivary ratio [1]: 84.3 ± 32.1 |
